Laboratory results taken from patent US8445633B2, “Peptide having bindability with adiponectin, analysis method utilizing same peptide, and analysis device utilizing same peptide” (Sharp Kabushiki Kaisha, priority 2010, dated 2013).

Key:
adiponectin [1] = biological target: T1, adiponectin (Homo sapiens, UniProt Q15848); assay: Bond between peptide spot-synthesized on cellulose membrane and adiponectin, sandwich enzyme immunoassay (HRP-tagged anti-adiponectin antibody, Amplex Red fluorescence); format: binding; conditions: Example 3, FIG. 5; for bindability with adiponectin: conclusion from fluorescent intensity; for fluorescent intensity in the synthesis spot: peptides with conservative substitution compared with parent peptides SEQ ID NOs: 8 and 9
T1 construct: purchased R&D Systems
T1 sequence (Q15848 19-244): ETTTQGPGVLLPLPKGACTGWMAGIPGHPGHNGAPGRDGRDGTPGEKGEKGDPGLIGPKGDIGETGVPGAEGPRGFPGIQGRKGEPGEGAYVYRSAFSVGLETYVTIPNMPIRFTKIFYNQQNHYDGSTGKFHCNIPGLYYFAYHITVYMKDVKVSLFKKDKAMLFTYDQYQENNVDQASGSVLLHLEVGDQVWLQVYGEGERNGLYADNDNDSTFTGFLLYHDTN
From the text: In order to identify an amino-acid sequence having bindability with adiponectin, a peptide was synthesized on a cellulose membrane by use of a peptide synthesis device (Model MultiPep RS (Intavis AG)) utilizing a Fmoc-based peptide spot synthesis.
Immobilized on the cellulose membrane was polyethylene glycol having a terminal modified with an amino group. An Fmoc amino acid was bound with the amino group by using DIC (diisopropylcarbodiimide)/HOBt (hydroxybenzotriazole). After that, Fmoc was removed.
The cycle of the removal of Fmoc and the subsequent binding was repeated to synthesis a peptide. Then, N-terminals and side chains of all the peptides were deprotected. Thereby, peptides consisting of amino-acid sequences represented by SEQ. ID NOs: 1 to 15 were obtained.
The sandwich technique which is one of enzyme immunoassays was performed to measure the bond between each of the peptides thus synthesized and adiponectin.
First, a cellulose membrane was soaked in ethanol. Then, the cellulose membrane was continuously washed with phosphate buffered saline (PBS) (pH 7.4) so that ethanol contained in the cellulose membrane was replaced with PBS. In order that nonspecific binding is inhibited, the cellulose membrane was incubated overnight in a blocking solution (PBS containing 1% milk powder).
Then, the cellulose membrane was incubated for 1 hour in a blocking solution (PBS containing 1% milk powder) which contains 0.25 μg/mL human adiponectin (R&D Systems). Then, the cellulose membrane was washed with PBST (PBS containing 0.1% (v/v) Tween 20). Then, the cellulose membrane was incubated for 1 hour in a blocking solution containing […] anti-human adiponectin antibody (R&D Systems) which is tagged with HRP, and then washed with PBST five times.
After that, 100 μM fluorescent substrate (Amplex Red (Invitrogen)) containing 1 mM hydrogen peroxide was added to the cellulose membrane, and then they react with each other for 10 minutes. A fluorescent intensity in a synthesis spot was measured in such a manner that an […] wavelength of 595 nm of fluorescence from the fluorescent substrate was measured by a fluorescence imager (GE Healthcare) by exciting, with light of 540 nm, the fluorescent substrate in the synthesis spot. A bond strength of the peptide was worked out from the fluorescent intensity in the synthesis spot.
A peptide consist of the amino-acid sequence represented by SEQ ID NO. 16 was synthesized as in Example 1. Then, the bond between the synthesized peptide and adiponectin was measured as in Example 1.
Then, the bond between each of the synthesized peptides and adiponectin was measured as in Example 1.

adiponectin [2] = biological target: T1, adiponectin; assay: Bond between adiponectin immobilized onto a microplate and biotin-tagged peptide, enzyme immunoassay (HRP-tagged streptavidin, TMB); format: binding; conditions: Example 2, FIG. 4; for absorbance at 450 nm: 1 mM peptide with C-terminal lysine tagged with biotin, compared with peptide of SEQ ID NO. 17 (Comparative Example 2); for bindability with adiponectin: conclusion from absorbance
Method: As described below, the bond between adiponectin immobilized onto a microplate and each of peptides tagged with biotin (biotin-tagged peptide) was measured by using enzyme immunoassay.
First, peptides were prepared in such a manner that lysine was added to the C-terminal of each of peptides having amino-acid sequences represented by SEQ ID NOs: 14 and 15. Then, the amino group of a lysine side chain of each of the peptides thus prepared was tagged with biotin so that biotin-tagged peptides were prepared.
5 μg/mL adiponectin (R&D Systems) prepared with PBS was dispensed to wells of a 96-well microplate in an amount of 100 μL per well. Then, the peptides were incubated for 1 hour at 37° C. Adiponectin was thus immobilized in the wells. In order to inhibit nonspecific binding, a blocking solution (Protein-Free Blocking Buffer, PIERCE) was then added to the wells in an amount of 300 μL per well. Then, the peptides were incubated for 2 hours at room temperature. Then, the wells were washed three times with PBST (PBS containing 0.1% (v/v) Tween 20). Then, 1 mM biotin-tagged peptide was added to the wells in an amount of 100 μL per well. Then, the peptides were incubated for 1 hour at room temperature. Then, the wells were washed with PBST again.
Then, HRP-tagged streptavidin (R&D Systems) diluted with 200 parts of the blocking solution (Protein-Free Blocking Buffer, PIERCE) was added to the well in an amount of 100 μL per well. Then, the streptavidin was incubated for 1 hour at room temperature. Then, the wells were washed with PBST. Then, TMB (tetramethylbenzidine) was added to the wells in an amount of 100 μL per well so that they react with each other for 20 minutes. Then, the reaction was stopped by adding 1 M of HCL to the wells in an amount of 100 μL per well. Then, an absorbance at 450 nm was measured by use of a microplate reader (Bio-Rad).
The bond between a peptide having the amino-acid sequence represented by SEQ ID NO. 17 and adiponectin as in Example 2.

Substance	bindability with adiponectin (adiponectin [1])	fluorescent intensity in the synthesis spot (adiponectin [1])	absorbance at 450 nm (adiponectin [2])	bindability with adiponectin (adiponectin [2])
18 (MGSFVPY; Adiponectin binding peptide) [compound 18]	had the bindability with adiponectin	close to those of the peptides having the amino-acid sequences represented by SEQ ID NOs: 8 and 9	–	–
15 (ILLPLRIN; Adiponectin binding peptide) [compound 15]	–	–	significantly higher in absorbance	had the bindability with adiponectin
19 (KFATPKHR; Adiponectin binding peptide) [compound 19]	had the bindability with adiponectin	close to those of the peptides having the amino-acid sequences represented by SEQ ID NOs: 8 and 9	–	–
14 (ITPIHWVK; Adiponectin binding peptide) [compound 14]	–	–	significantly higher in absorbance	had the bindability with adiponectin
